Reference: PMC6368608

Assays:
CH103 (human) [1] = assay: SPR; BIAcore T200; […]) 5 min at 50 µL/min, 10 min dissociation; […]; global 1:1 Langmuir fit; […]
CH106 (human) [2] = assay: as above
[3] = target: I8 (CH103 lineage intermediate) (human); assay: as above
[4] = target: I3 (CH103 lineage intermediate) (human); assay: as above
CH103 (human) [5] = assay: SPR
CH106 (human) [6] = assay: SPR
[7] = target: CH103 lineage intermediate I3 (human); assay: SPR
CH103-S14P/G30S (human) [8] = assay: SPR
Sequence of CH103-S14P/G30S (human) (heavy, as listed by the source, chain 1 of 2): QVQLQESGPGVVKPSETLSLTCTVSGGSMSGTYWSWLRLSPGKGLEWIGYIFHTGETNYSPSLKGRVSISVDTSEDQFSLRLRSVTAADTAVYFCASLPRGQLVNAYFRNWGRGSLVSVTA
Sequence of CH103-S14P/G30S (human) (light, as listed by the source, chain 2 of 2): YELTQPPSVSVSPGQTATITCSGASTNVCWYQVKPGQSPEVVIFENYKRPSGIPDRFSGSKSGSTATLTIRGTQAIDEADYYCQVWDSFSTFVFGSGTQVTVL

[9] = target: CH103 lineage intermediate I8 (human); assay: SPR
CH103-S14P (human) [10] = assay: SPR
Sequence of CH103-S14P (human) (heavy, as listed by the source, chain 1 of 2): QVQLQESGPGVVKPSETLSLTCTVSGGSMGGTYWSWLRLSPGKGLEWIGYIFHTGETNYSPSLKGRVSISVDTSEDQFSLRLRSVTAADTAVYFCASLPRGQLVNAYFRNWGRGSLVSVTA

UCA-S30G (human) = assay: BLI; […] (AHC) […]; 1:1 model; […]
UCA-S30G/S31G (human) = assay: BLI; […] (AHC) […]; 1:1 model; […]
CH103 (human) [11] = assay: BLI; […] (AHC) […]; 1:1 model; […]
CH106 (human) [12] = assay: BLI; […] (AHC) […]; 1:1 model; […]
CH103 UCA (human) [13] = assay: BLI; […] (AHC) […]; 1:1 model; […]
UCA-P14S (human) = assay: BLI; […] (AHC) […]; 1:1 model; […]
I4-S14P/G30S (human) [14] = assay: BLI; […] (AHC) […]; 1:1 model; […]
CH103-S14P/G30S (human) [15] = assay: BLI; […] (AHC) […]; 1:1 model; […]
CH103 (human) [16] = assay: BLI; […]; mAb (20 ug/mL in PBS) […] (AHC) […], association 400 s, […]; 1:1 model; […]
[17] = target: CH103 UCA-S30G/S31G (human); assay: as above
CH106 (human) [18] = assay: as above
CH103 UCA (human) [19] = assay: as above
I4-S14P (human) = assay: as above
CH103 UCA-P14S (human) = assay: as above
I4-S14P/G30S (human) [20] = assay: as above
CH103-S14P/G30S (human) [21] = assay: as above
CH103 UCA-S30G (human) = assay: as above
CH103-S14P (human) [22] = assay: as above
[23] = target: C.CH505TF SOSIP.664.v4.1 (HIV-1 (C.CH505 transmitted/founder))
[24] = target: C.CH505TF gp120 (HIV-1 clade C, CH505 transmitted/founder) (UniProt M4M0W3); assay: SPR

Sequence of CH106 (human) (heavy, as listed by the source, chain 1 of 2): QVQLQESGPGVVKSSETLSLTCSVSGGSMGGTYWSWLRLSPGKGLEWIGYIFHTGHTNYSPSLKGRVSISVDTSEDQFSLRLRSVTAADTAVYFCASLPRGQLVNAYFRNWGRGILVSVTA
Sequence of CH106 (human) (light, as listed by the source, chain 2 of 2): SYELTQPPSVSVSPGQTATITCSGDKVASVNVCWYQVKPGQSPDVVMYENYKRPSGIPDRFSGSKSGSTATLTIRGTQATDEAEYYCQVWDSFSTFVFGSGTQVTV
Sequence of CH103 (human) (heavy, as listed by the source, chain 1 of 2): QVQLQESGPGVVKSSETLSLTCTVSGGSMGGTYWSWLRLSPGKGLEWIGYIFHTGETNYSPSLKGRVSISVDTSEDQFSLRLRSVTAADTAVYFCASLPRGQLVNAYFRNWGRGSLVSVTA

## B.63521 D11 gp120 (domain or fragment)
CH103 (human) [1]
  Kd: 1.1 nM
CH106 (human) [2]
  Kd: 14.2 nM
[3]
  kon: 170 M⁻¹ s⁻¹
[4]
  Kd: 4200 nM
  fold faster ka than I8: > 50 fold
CH103 (human) [5]
  koff: 2e-05 s⁻¹
  kon: 15000 M⁻¹ s⁻¹
CH106 (human) [6]
  koff: 0.000229 s⁻¹
  kon: 16000 M⁻¹ s⁻¹
[7]
  koff: 0.0225 s⁻¹
  kon: 5300 M⁻¹ s⁻¹
CH103-S14P/G30S (human) [8]
  Kd: 4 nM
  koff: 2.9e-05 s⁻¹
  kon: 8210 M⁻¹ s⁻¹
[9]
  Kd: 680000 nM
  koff: 0.113 s⁻¹
CH103-S14P (human) [10]
  Kd: 2.1 nM
  koff: 2e-05 s⁻¹
  kon: 9100 M⁻¹ s⁻¹

## C.CH505TF SOSIP.664.v4.1 (complex)
UCA-S30G (human)
  Kd: 1800 nM
UCA-S30G/S31G (human)
  Kd: 800 nM
CH103 (human) [11]
  Kd: 16 nM
CH106 (human) [12]
  Kd: 5 nM
CH103 UCA (human) [13]
  Kd: 1500 nM
UCA-P14S (human)
  Kd: 1700 nM
I4-S14P/G30S (human) [14]
  Kd: 160 nM
CH103-S14P/G30S (human) [15]
  Kd: 150 nM

## C.CH505TF.SOSIP.664.v4.1 (complex)
CH103 (human) [16]
  koff: 1.5e-05 s⁻¹
  kon: 930 M⁻¹ s⁻¹
[17]
  koff: 0.0012 s⁻¹
  kon: 1400 M⁻¹ s⁻¹
CH106 (human) [18]
  koff: 3.6e-06 s⁻¹
  kon: 670 M⁻¹ s⁻¹
CH103 UCA (human) [19]
  koff: 0.00168 s⁻¹
  kon: 1100 M⁻¹ s⁻¹
I4-S14P (human)
  Kd: 109 nM
  koff: 0.00027 s⁻¹
  kon: 2460 M⁻¹ s⁻¹
CH103 UCA-P14S (human)
  koff: 0.0015 s⁻¹
  kon: 900 M⁻¹ s⁻¹
I4-S14P/G30S (human) [20]
  koff: 0.00034 s⁻¹
  kon: 2120 M⁻¹ s⁻¹
CH103-S14P/G30S (human) [21]
  koff: 6.6e-05 s⁻¹
  kon: 450 M⁻¹ s⁻¹
CH103 UCA-S30G (human)
  koff: 0.0015 s⁻¹
  kon: 860 M⁻¹ s⁻¹
CH103-S14P (human) [22]
  Kd: 20 nM
  koff: 1.8e-05 s⁻¹
  kon: 890 M⁻¹ s⁻¹

## CH103 (antibody)
[23]
  IC80 of neutralisation of the autologous CH505TF Env-pseudovirus, TZM-bl cells (Env on the virus, not the SOSIP trimer): 6.4 µg/mL

## CH103-S14P (antibody)
[23]
  IC80 of neutralisation of the autologous CH505TF Env-pseudovirus, TZM-bl cells (Env on the virus, not the SOSIP trimer): 12.8 µg/mL

## CH103-S14P/G30S (antibody)
[23]
  IC80 of neutralisation of the autologous CH505TF Env-pseudovirus, TZM-bl cells (Env on the virus, not the SOSIP trimer): 15.5 µg/mL

## I4-S14P (antibody)
[24]
  Kd: 40 nM
  koff: 0.00053 s⁻¹
  kon: 13100 M⁻¹ s⁻¹
[23]
  IC50 of neutralisation of the autologous CH505TF Env-pseudovirus, TZM-bl cells (Env on the virus, not the SOSIP trimer): 14.8 µg/mL
  IC80 of neutralisation of the autologous CH505TF Env-pseudovirus, TZM-bl cells (Env on the virus, not the SOSIP trimer): > 50 µg/mL

## I4-S14P/G30S (antibody)
[24]
  Kd: 100 nM
  koff: 0.00101 s⁻¹
  kon: 10000 M⁻¹ s⁻¹
[23]
  IC50 of neutralisation of the autologous CH505TF Env-pseudovirus, TZM-bl cells (Env on the virus, not the SOSIP trimer): 43.2 µg/mL
  IC80 of neutralisation of the autologous CH505TF Env-pseudovirus, TZM-bl cells (Env on the virus, not the SOSIP trimer): > 50 µg/mL
